Measured values reported in US20230279130A1.

Experiments:
[1] = target: full length human CCR8 (hCCR8) (human) (UniProt P51685); experiment: flow cytometry, CD4+Foxp3+ gated cells of human PBMC stimulated with IL-2 (200 U/ml) for 2 days, anti-human IgG Fc against Foxp3
[2] = target: full length human CCR8 (hCCR8) (human) (UniProt P51685); experiment: flow cytometry, CD4+Foxp3+ gated cells of resting human PBMC, anti-human IgG Fc against Foxp3
[3] = target: full length human CCR8 (hCCR8) (human) (UniProt P51685); experiment: flow cytometry, CD4+Foxp3+ gated cells of OKT-3 stimulated human PBMC, anti-human IgG APC against Foxp3 PE

percent of CD4+Foxp3+ cells in the gate 'Foxp3 ahigG Subset' [1] [%]	percent of CD4+Foxp3+ cells in the gate 'Foxp3 ahigG Subset' [2] [%]	percent of CD4+Foxp3+ cells stained (upper right quadrant) [3] [%]	Substance
0.36	0.11	–	Anti RSV (antibody)
–	–	6.23	anti-DNP (dinitrophenyl) control antibody
